The values that follow come from publication PMC10474274, “Structural insights into mechanisms of Argonaute protein-associated NADase activation in bacterial immunity”.

Data set [1] has as its target TIR-APAZ/Ago complex from Maribacter polysiphoniae (Maribacter polysiphoniae). As to the kind of experiment: cryo-EM structure; TIR-APAZ/Ago with gRNA and target ssDNA (1:1.5:2), tetramer of heterodimers, 2.95 Å.
Data set [2] concerns the target Ago protein from Maribacter polysiphoniae (Maribacter polysiphoniae). The description is as above.
Data set [3] concerns the target TIR-APAZ protein from Maribacter polysiphoniae (Maribacter polysiphoniae). The data set is described as above.
The target in data set [4] is SIR2-APAZ;short prokaryotic Ago (SIR2-APAZ system) (Geobacter sulfurreducens;Geobacter …, UniProt Q74DF6;Q74DF5 1-587;1-473, |). The data set can be described thus: cryo-EM; metal ion at 5'-phosphate; 2 mM MgCl2; heterodimer; 3.0 A; cryo-EM: complex:gRNA:target DNA 1:1.5:2; TIR system 25 mM Tris-HCl pH 7.5, 150 mM NaCl, 2 mM DTT, 2 mM MgCl2; SIR2 system 25 mM HEPES pH 7.9, 150 mM NaCl, 2 mM DTT, 2 mM MgCl2 (gel-filtration buffers); native PAGE conditions not in material. As to conditions: protein: recombinant;recombinant; tags: His-SUMO (N-terminal); copies: 1;1; about 25 bp visible.
Chain of SIR2-APAZ;short prokaryotic Ago (SIR2-APAZ system) (chain, as listed by the source |, chain 1 of 2): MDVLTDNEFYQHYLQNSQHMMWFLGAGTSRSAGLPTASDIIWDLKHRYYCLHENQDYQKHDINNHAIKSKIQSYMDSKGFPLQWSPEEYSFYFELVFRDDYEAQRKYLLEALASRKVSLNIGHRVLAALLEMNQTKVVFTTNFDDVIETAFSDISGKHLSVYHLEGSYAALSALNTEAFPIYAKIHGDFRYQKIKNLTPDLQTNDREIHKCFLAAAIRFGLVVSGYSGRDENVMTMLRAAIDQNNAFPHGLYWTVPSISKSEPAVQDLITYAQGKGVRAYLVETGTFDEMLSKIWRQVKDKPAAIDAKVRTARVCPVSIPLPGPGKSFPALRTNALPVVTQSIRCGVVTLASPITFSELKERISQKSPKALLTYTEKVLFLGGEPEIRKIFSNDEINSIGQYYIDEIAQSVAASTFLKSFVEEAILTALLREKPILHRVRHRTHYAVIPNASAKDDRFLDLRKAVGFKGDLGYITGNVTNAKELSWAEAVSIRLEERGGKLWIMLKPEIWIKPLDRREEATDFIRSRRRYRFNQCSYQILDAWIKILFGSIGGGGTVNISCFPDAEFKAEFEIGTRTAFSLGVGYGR
Chain of SIR2-APAZ;short prokaryotic Ago (SIR2-APAZ system) (chain, as listed by the source |, chain 2 of 2): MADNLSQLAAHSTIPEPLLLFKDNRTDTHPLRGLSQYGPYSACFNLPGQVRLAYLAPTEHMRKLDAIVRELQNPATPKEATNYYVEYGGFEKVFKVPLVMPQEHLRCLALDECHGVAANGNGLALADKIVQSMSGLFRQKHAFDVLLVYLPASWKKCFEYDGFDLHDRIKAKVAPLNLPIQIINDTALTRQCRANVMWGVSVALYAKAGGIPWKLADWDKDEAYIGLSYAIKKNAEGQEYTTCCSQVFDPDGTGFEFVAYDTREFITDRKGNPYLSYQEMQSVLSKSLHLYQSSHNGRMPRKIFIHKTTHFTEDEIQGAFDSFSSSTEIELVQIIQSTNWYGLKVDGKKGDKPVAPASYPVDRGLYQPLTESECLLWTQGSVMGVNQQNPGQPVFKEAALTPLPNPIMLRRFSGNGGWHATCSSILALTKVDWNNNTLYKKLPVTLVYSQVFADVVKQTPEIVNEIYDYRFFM

In data set [1], “TIR-APAZ/Ago complex from Maribacter polysiphoniae” returned a stoichiometry N of 4.

For “Ago protein from Maribacter polysiphoniae (natural protein)”, the stoichiometry N in data set [2] came to 2.

Take “TIR-APAZ protein from Maribacter polysiphoniae (natural protein)”: the stoichiometry N in data set [3] was 4.

B1: gRNA + target ssDNA (SIR2-APAZ/Ago) (DNA:RNA)
RNA: AUAAUGGUUUCUUAGACGUCGUUUUAGAGCUGUGUUGUUUCG
DNA: CGAAACAACACAGCTCTAAAACGACGTCTAAGAAACCATTAT
modifications: 5'-phosphate on gRNA
For B1, in data set [4], the binding result was “binds”.
